Measurements reported in PMC3699631, “Posttranslational Modifications of the Histone 3 Tail and Their Impact on the Activity of Histone Lysine Demethylases In Vitro” (PLoS ONE, 2013).
Entries after “also recorded” stand apart in the source; their conditions may differ.

Biological target: T1, human FL-KDM4A (Homo sapiens, UniProt O75164)
T1 construct: along with the full length FL- KDM4C and FL-KDM4A using various synthetic histone tail peptides as substrates; His6 (N); made in house; host or cells: High Five (Trichoplusia ni) insect cells, baculovirus
T1 sequence (O75164 1-1064): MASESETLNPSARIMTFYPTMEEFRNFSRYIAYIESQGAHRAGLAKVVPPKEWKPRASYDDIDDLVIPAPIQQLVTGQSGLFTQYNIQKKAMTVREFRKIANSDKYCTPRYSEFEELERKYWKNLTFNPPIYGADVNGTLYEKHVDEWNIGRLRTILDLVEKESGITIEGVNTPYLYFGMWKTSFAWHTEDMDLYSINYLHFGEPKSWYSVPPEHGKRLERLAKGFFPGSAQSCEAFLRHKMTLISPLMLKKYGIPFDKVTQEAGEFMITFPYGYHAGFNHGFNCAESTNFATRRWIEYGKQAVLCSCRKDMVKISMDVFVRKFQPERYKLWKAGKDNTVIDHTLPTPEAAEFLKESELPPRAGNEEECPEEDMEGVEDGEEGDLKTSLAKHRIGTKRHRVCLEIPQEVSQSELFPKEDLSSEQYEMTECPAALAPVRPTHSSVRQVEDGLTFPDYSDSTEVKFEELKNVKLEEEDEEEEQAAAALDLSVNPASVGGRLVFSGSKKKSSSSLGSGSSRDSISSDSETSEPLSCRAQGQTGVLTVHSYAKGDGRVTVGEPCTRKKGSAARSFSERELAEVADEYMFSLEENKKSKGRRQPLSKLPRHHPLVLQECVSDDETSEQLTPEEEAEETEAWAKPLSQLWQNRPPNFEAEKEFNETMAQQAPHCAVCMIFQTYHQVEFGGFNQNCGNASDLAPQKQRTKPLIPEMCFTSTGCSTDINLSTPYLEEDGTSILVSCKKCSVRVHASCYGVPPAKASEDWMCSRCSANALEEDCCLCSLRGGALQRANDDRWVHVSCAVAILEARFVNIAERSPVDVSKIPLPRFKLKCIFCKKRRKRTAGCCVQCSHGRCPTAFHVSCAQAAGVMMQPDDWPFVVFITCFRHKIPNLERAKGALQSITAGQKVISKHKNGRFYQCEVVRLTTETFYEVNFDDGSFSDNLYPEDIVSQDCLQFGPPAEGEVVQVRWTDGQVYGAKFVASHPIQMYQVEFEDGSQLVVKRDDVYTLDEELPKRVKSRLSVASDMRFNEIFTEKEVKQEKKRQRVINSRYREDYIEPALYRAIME
Experiment: FDH-assay enzyme kinetics of H3 peptide demethylation, full length KDM4A
Format: biochemical
Set-up: key to K m / k cat / k cat /K m: 0 means no demethylation could be detected
Details: for demethylation / catalytic activity (in words) / K m / k cat / k cat /K m: FDH-assay; for K m: 50 mM HEPES (pH 7.5), 50 mM NaCl, 50 µM FeSO4, 500 µM α-KG, 500 µM ascorbate, 2 mM NAD, substrate 10–1000 µM, NADH fluorescence 15–30 minutes; for K m / k cat: triplicate; for k cat: pH 7.5, NADH fluorescence; for k cat /K m: pH 7.5, triplicate
Description: The enzyme kinetics were measured using a Formaldehyde DeHydrogenase Assay (FDH-Assay) and the demethylation of substrates was confirmed when possible by MALDI-TOF-MS, see File S1 for details. The test solution contained 50 mM HEPES (pH 7.5), 50 mM NaCl, 50 µM FeSO4, 500 µM α-KG, 500 µM ascorbate, 2 mM NAD, approximately 0.05 unit of FDH and e.g. 4.88 µM KDM4C (enzyme concentration varied between batches). The reference solution was comprised of the same except substrate. The assay was initiated by adding various concentrations of H3 peptide substrates e.g. H3(1–24)K9me3 (10–1000 µM) and the increase in NADH fluorescence was measured over 15–30 minutes in 30 second intervals. Data analysis and kinetic values were obtained using programs Excel and GraphPad Prism® 5.0. For details, see File S1.
The standard deviations for k cat/K m were calculated using the statistic law of propagation of errors. Standard errors for Michaelis-Menten Kinetics were automatically given in GraphPad Prism®, with a 95% confidence interval. All enzyme kinetic curves were done in triplicate unless otherwise stated.
Test for activity of enzyme using the fluorescence FDH assay, determination of Vmax and Km of enzymes with substrate, expression and purification of cc-KDM4A and cc-KDM4C software and parameters for the FDH coupled assay, see Lohse et al.^21
Recombinant baculoviridae encoding the full Open Reading Frame (ORF) of FL-KDM4A and FL-KDM4C were generously donated from the Biotech Research and Innovation Centre (BRIC), University of Copenhagen, Denmark. Recombinant protein was expressed by adding High Titer Stocks to High Five (Trichopulsia ni) insect cells in suspension culture. The cell cultures were harvested by centrifugation after ~ 60 hours and the cells were resuspended in hypotonic buffer (25 mM Hepes-KOH, pH 7.7, 1.5 mM MgCl, 5 mM KCl) supplemented with one protease inhibitor cocktail tablet per 500 ml expression (Roche, EDTA-free). The resuspended cells were frozen at -20 °C.
Both proteins were purified by IMAC using Talon FF (Clontech) cobalt resin according to the following protocol; resuspended cells were thawed on ice, 100 ml hypotonic buffer was added per 500 ml expression volume and the cells were incubated with stirring for 30 min. at 4 °C, followed by a brief (30 s per 500 ml culture volume) sonication. β-mercaptoethanol (BME, 2 mM final concentration), Triton X-100 (0.2 % final concentration) and NaCl (300 mM final concentration) were added and the cell suspension was stirred for another 30 min at 4 °C. The lysate was cleared by centrifugation at 50.000 g for 60 minutes. The cleared lysates were adjusted to 5 mM imidazole and incubated with Talon resin (1 ml /500 ml expression) for 60 minutes. The resin was allowed to sediment, the lysate removed and the resin was transferred to PD-10 gravity flow columns (GE Healthcare). The resin was washed with 10 column volumes of binding buffer (50 mM Hepes-KOH, pH 7.7, 300 mM NaCl, 5 mM imidazole, 10% glycerol, 0.05 % Triton X-100, 2 mM BME) and eluted with 2 x 2.5 ml elution buffer (50 mM Hepes-KOH, pH 7.7, 300 mM NaCl, 100 mM imidazole, 10 % glycerol, 0.05 % Triton X-100, 2 mM BME). Each eluted fraction has its buffer changed to 50 mM Hepes pH 7.5, 300 mM NaCl, 10 % glycerol using a PD-10 desalting column. The protein was concentrated to 6-7 mg/ml (FL-KDM4A) or 10-12 mg/ml (FL-KDM4C). Despite the buffer change it is likely that small amounts of Triton X-100 remained in the protein samples. Triton X-100 has a significant absorbance at 280 nm, so the protein concentration was determined by Bradford assay using a BSA standard curve. The protein purity was approximately 70 % as judged from SDS-PAGE. The concentrated protein was aliquoted and stored at -80 °C until assays were performed.
The standard deviations for kcat/ Km were calculated using the statistic law of propagation of errors. […]

[1] = SD by propagation of errors, unit: (min^−1 * µM^−1) * 10^3

## H3(1–24)K4me3K9me3: bis-tri-methylated substrate, trimethylated K4 in combination with H3K9me3
  demethylation / catalytic activity (in words): an increase in FL-KDM4A demethylation activity, which is significantly higher compared to cc-KDM4A
  K m: 45±9
  k cat: 2.2±0.3
Compared to H3(1–24)K9me3
  fold increase in k cat/K m: 17 fold
figures
  k cat /K m: 50 ± 9 min^-1 * μM^-1 * 10^3

## H3(1–24)K9me2: truncated histone tail, 24 first amino acids from the N-terminus of H3, dimethylated lysine 9
  demethylation / catalytic activity (in words): too low to be detected; also recorded: could not be detected
  K m: 0
  k cat: 0
[1]
  k cat /K m: 0

## H3(1–24)K9me3: truncated histone tail, 24 first amino acids from the N-terminus of H3, trimethylated lysine 9; control peptide
  demethylation / catalytic activity (in words): preference for the H3K9me3 over the H3K9me2
  K m: 122±31
[1]
  k cat /K m: 3.1±0.3
figures
  k cat /K m: 3 ± 0.4 min^-1 * μM^-1 * 10^3

## H3(1–24)K9me3T11(ph): H3(1–24)K9me3 with phosphorylation of threonine 11
  demethylation / catalytic activity (in words): no detectable turnover
  K m: 0
  k cat: 0
[1]
  k cat /K m: 0
